System: MS2 coat protein
Test: apparent KD of MS2 coat protein; designed switch direction (-1 OFF switch, 1 ON switch): -1; higher = weaker reporter binding
In short: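 Three titration conditions were used: no input, 200 uM small-molecule ligand, and an oligonucleotide input. In each, SNAP-549-labelled MS2 coat protein was raised from 0.7 or 1.5 nM, doubling, to 3 µM over designed RNA switches transcribed on Illumina chips by stalled E. coli RNA polymerase. Curve fits of normalised cluster fluorescence gave values whose per-design median over clusters is the apparent KD.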

[1] = Eterna round: R95, input ligand: microRNA oligo, concentration not stated
[2] = Eterna round: R95, input ligand: FMN 200 uM
[3] = Eterna round: R95, input ligand: none

AGCUGUGGCCGAGGAUAUGACAUGAGGAUCACCCAUGUACAUGAUUAGGCCUGGUAACAGGCUCGUCAGAAGGCGGUCUCAGCA [Eli eng2 - 009] (Eterna round: R96, puzzle: Exclusion NG 2)
apparent KD of MS2 coat protein (input ligand: FMN 200 uM): 46.2 nM
apparent KD of MS2 coat protein (input ligand: microRNA oligo, concentration not stated): 13.6 nM
apparent KD of MS2 coat protein (input ligand: none): 15.9 nM

AGGAUGUGAGGAUAUCCAUCCCGCGAAUGCGGGUAAUAAAUGGAGAAGGCACAUGAGGAUCACCCAUGUGAUGA [Laleatus] (Eterna round: R97, puzzle: Exclusion 4)
apparent KD of MS2 coat protein (input ligand: FMN 200 uM): 978 nM
apparent KD of MS2 coat protein (input ligand: none): 47.8 nM

AGGAUGUUAGGAUAUCGGAUAUGCUGGAGGAGGUGGAUUUACGAGAAGGAACAUGAGGAUCACCCAUGUUGGAG [JR_Exclu4_Sub047] (puzzle: Exclusion 4)
apparent KD of MS2 coat protein [1]: 20.9 nM

AGGCAGCAAGGAUAUACAUAAUUCCUACAAGUCAGCAUAGGACAUGAGGAUCACCCAUGUAGAAGGUGCAAAGA [Soesquma] (puzzle: Exclusion 2)
apparent KD of MS2 coat protein [1]: 24.5 nM

AGGCGUGCUGAGGAUAUACUACCGGUUGCGAUAGUAGAAGGUAGCACAUGAGGAUCACCCAUGUGGUCAGAUGC [Bequte] (puzzle: Exclusion 6)
apparent KD of MS2 coat protein [1]: 19.1 nM

AGGGAGCGAGGAUAUACAGAGUAAGAAACUACUCCCUCAGUACAUGAGGAUCACCCAUGUAGAAGGCGCCCGAC [EX2 A.2] (Eterna round: R97, puzzle: Exclusion 2)
apparent KD of MS2 coat protein (input ligand: FMN 200 uM): 33.7 nM
apparent KD of MS2 coat protein (input ligand: none): 20.9 nM

AGGUAACAUGAGGAUCACCCAUGUCAGGAUAUCAGUAAGAUGAGGAUAGAAUAGAGUAUGAGAAGGGACUAUAU [Excluse me! 22 - Jieux - Exclusion 1] (puzzle: Exclusion 1)
apparent KD of MS2 coat protein [2]: 34 nM
apparent KD of MS2 coat protein [1]: 38.5 nM
apparent KD of MS2 coat protein [3]: 47.6 nM

AGGUAGUCAGGAUAUUAAGAGUAGCGGGAUAACGCUACGAGUGAGAAGGGACAUGAGGAUCACCCAUGUUUUUU [JR_Ex4_Sub072] (Eterna round: R97, puzzle: Exclusion 4)
apparent KD of MS2 coat protein (input ligand: FMN 200 uM): 22 nM
apparent KD of MS2 coat protein (input ligand: none): 22.5 nM

AGGUCACAUGAGGAUCACCCAUGUGAGGAUAUAGACUCAAGAGCUUCGGCUCUCAAGUUUAGAAGGCGCAAUGA [EX1 #52] (Eterna round: R97, puzzle: Exclusion 1)
apparent KD of MS2 coat protein (input ligand: FMN 200 uM): 31.7 nM
apparent KD of MS2 coat protein (input ligand: none): 31.2 nM

AGGUGUAGAGGAUAUCGACUUUCUCACAUGAGGAUCACCCAUGUCCUGGUCACCCAGGACCGAGAAGGCUACACCA [Omei Ex5 D27] (Eterna round: R97, puzzle: Exclusion 5)
apparent KD of MS2 coat protein (input ligand: FMN 200 uM): 204 nM
apparent KD of MS2 coat protein (input ligand: none): 27.6 nM

AGGUGUAGAGGAUAUCUCUUCUCUCACAUGAGGAUCACCCAUGUCCUGGGUACCUAGGAGAGAGAAGGCUACACCA [Omei Ex5 D11] (Eterna round: R97, puzzle: Exclusion 5)
apparent KD of MS2 coat protein (input ligand: FMN 200 uM): 1370 nM
apparent KD of MS2 coat protein (input ligand: none): 587 nM

AGUAACAGAGGAUAUACUGUUUUAUGUGUUUGUUAUUUUGAACAUGAGGAUCACCCAUGUAGAAGGCUGAAUAA [JMF 92] (puzzle: Exclusion 2)
apparent KD of MS2 coat protein [1]: 20 nM

AGUAACUAUCACGAAAGUGAUAGUUACAAACAGGUGAAAACAUGAGGAUCACCCAUGUCCUCAUUUGCUCGUCUUAU [Sensor 3 - 8] (puzzle: Sensor v3, turn-off variant 2)
apparent KD of MS2 coat protein [2]: 213 nM
apparent KD of MS2 coat protein [1]: 64.5 nM
apparent KD of MS2 coat protein [3]: 240 nM

AGUACUAACACGAAAGUGUUAGUACAAUAAGCUUGUGUAACAUGAGGAUCACCCAUGUCCUCAUAAGCUCGUCUUAU [salish99_TOv2_r3_043] (puzzle: Sensor v3, turn-off variant 2)
apparent KD of MS2 coat protein [2]: 50.6 nM
apparent KD of MS2 coat protein [1]: 38.3 nM
apparent KD of MS2 coat protein [3]: 51.6 nM

AGUACUAACACGAAAGUGUUGGUACAAUAAGCUUGUGAAACAUGAGGAUCACCCAUGUCCUCAUAAGCUCGUCUUAU [salish99_TOv2_r3_036] (puzzle: Sensor v3, turn-off variant 2)
apparent KD of MS2 coat protein [2]: 17.9 nM
apparent KD of MS2 coat protein [1]: 599 nM
apparent KD of MS2 coat protein [3]: 16.7 nM

Source: the supplement of paper PMC9170038
